Reference: article doi:10.1101/2023.04.03.535447

Experiments:
[1] = biological target: ACE2 receptor (UniProt Q9BYF1); assay: ELISA; competitive ELISA of ACE2 binding; Alhydrogel-adsorbed DCFHP incubated overnight at 4, 40 or 50 °C, compared with a reference sample adsorbed on the day of the assay
[2] = biological target: ACE2 receptor (UniProt Q9BYF1); assay: ELISA; competitive ELISA of ACE2 binding; DCFHP 100% adsorbed to Alhydrogel (no phosphate), time zero against storage at 4 °C for 3-21 days (mean 10 days); read-out is the native antigen concentration against a reference, target 50 mcg/mL

UniProt Q9BYF1, sequence (Q9BYF1 18-805): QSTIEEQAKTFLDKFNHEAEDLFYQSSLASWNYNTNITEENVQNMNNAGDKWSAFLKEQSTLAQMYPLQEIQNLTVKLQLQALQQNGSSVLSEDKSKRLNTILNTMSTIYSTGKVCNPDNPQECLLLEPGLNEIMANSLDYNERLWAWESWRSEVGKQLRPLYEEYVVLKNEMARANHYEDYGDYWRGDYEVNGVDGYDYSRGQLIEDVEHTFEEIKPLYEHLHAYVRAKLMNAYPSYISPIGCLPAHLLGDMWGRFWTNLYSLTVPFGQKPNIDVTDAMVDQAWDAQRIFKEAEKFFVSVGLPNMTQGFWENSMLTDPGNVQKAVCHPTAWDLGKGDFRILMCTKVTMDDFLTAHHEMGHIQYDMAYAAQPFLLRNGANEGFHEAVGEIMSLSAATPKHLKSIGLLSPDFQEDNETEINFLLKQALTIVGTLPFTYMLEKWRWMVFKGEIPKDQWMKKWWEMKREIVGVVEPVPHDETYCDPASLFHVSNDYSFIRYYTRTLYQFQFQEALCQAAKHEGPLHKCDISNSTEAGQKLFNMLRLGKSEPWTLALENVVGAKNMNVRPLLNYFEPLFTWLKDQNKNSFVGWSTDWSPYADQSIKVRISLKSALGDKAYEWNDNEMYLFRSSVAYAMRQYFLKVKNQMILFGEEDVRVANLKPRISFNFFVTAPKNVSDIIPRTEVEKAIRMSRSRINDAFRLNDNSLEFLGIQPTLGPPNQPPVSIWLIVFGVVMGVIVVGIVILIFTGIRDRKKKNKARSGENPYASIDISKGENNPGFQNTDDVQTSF

“Delta-C70-Ferritin-HexaPro SARS-CoV-2 spike ferritin nanoparticle produced in Expi293 cells” was tested, and the loss of ACE2 binding after overnight incubation at 40°C (AH-adsorbed) [1] was 60%, the loss of ACE2 binding after overnight incubation at 50°C (AH-adsorbed) [1] was 80% and the native antigen concentration by ACE2 competitive ELISA, freshly adsorbed (time zero) [2] was 48 µg/mL. It also gave a native antigen concentration by ACE2 competitive ELISA, stored at 4°C for 3-21 days [2] of 75 µg/mL.
